# In patent US20220347267A1, “METHODS TO IMPROVE PATIENT RESPONSE TO IMMUNE CHECKPOINT INHIBITORS AND FUNCTIONAL TESTS TO PREDICT RESPONSE” (Biomarker Strategies, LLC, priority 2019, published 2022):
# B1: IFNγ: human IFNγ, modulator (10 ng/ml; Sigma Aldrich) (protein, UniProt P01579 24-161, looked up)
# Interferon gamma: QDPYVKEAENLKKYFNAGHSDVADNGTLFLGILKNWKEESDRKIMQSQIVSFYFKLFKNFKDDQSIQKSVETIKEDMNVKFFNSNKKKRDDFEKLTNYSVTDLNVQRKAIHELIQVMAELSPAAKTGKRKRSQMLFRG
# Assays:
# Test in all cases: PD-L1 flow cytometry, IFNγ modulation
# Assay type in all cases: cell-based, human
# H1299 cells = system: H1299 cells
# Procedure: (§1) Samples (150 uL per tube) were first incubated with a blocking reagent at 1:20 for 15 min at room temperature. Alexa 488-conjugated PD-L1 antibody (CST cat #25048, Lot #2) and Alexa 488-conjugated isotype antibody (CST cat #2975, Lot #16) were added to experimental samples and isotype control samples, respectively, at a manufacturer recommended dilution of 1:50 and the samples were incubated for 30 min at room temperature. Other fluorophore-conjugates and PD-L1 antibodies, including those targeting different epitopes, can be readily used. Additionally, antibodies detecting other biomarkers with appropriate processing (e.g. permeabilization of cells) to predict response (e.g. p-STAT-1) can be used. Following the incubation with an antibody, 1 mL of 2% FBS in PBS was added to each tube to dilute the antibody. Samples were then centrifuged at 200 rcf for 5 min. Supernatant was carefully aspirated and 200 uL of 10% neutral buffered formalin (NBF) was added. Samples were then fixed for 10 min at room temperature. NBF was diluted with 1 mL of 2% FBS in PBS and the samples were centrifuged at 200 rcf for 5 min. Supernatant was aspirated and the cells were resuspended in 0.5 mL of 2% FBS in PBS for flow cytometric analysis. In this experiment, 10% NBF was used to fix cells, but other fixatives, for example, 4% paraformaldehyde can be used.
# (§2) Flow cytometry was performed using BDTM LSR II cytometer and BD FACSDiva™ data acquisition software. Any commercially available flow cytometry analysis software can be used, such as FlowJo (BD) and FCS Express (De Novo Software). Additionally, other flow cytometry instruments can be readily used. A total of 20,000 events were recorded for each sample. A Scatter gate was first applied, and a singlet gate was then applied on the scatter population to exclude doublet population. A 488 nm blue laser and a 530 nm detector were used to capture PD-LL signal. Any signal above the isotype control signal of the singlet population was considered PD-L1+(see FIG. 33). Though it was excluded from this experiment, cell viability can be assessed, and dead cells excluded from analysis, using stains such as Live/Dead™ Fixable Dead Cell Stain (Thermo) for fixed cells, or either 7-AAD (7-Aminoactinomycin D) or Propidium Iodide for unfixed cells.
# (§3) A percent change in PD-L1+ events between Untreated (non-modulated; vehicle control) and Treated (modulated with IFNγ) samples was calculated for each of the four cell lines tested (Table 2). […] A percent change in PD-L1 signal between Untreated and Treated samples was calculated for each of the four cell lines tested. […] The mean PD-L1 signal was used to calculate the percent change, however, median (as shown in FIGS. 34A-34H), geometric mean, mode or any other averaging method can also be used. To assess the difference in PD-L1 expression level or number of PD-L1+ events between Treated and Untreated samples, either a percent change or fold change can be calculated. Differences in PD-L1 expression level can also be assessed between a control sample with a known PD-L1 level and a clinical sample with an unknown PD-L1 level. To do so, the assay result of modulated and unmodulated clinical samples should be normalized to that of a control sample. A percent change or fold change between modulated and unmodulated samples can then be calculated using the normalized values. Baseline PD-L1 levels, as well as changes to PD-L1 upon modulation, can be used to predict response to therapy. As mentioned in the Methods section above, the antibody against PD-L1 used in this experiment targets extracellular portion of the PD-L1 molecule and as such, permeabilization was not performed. Antibodies such as those that target other PD-L1 domains would yield different PD-L1 expression patterns depending on the form(s) of PD-L1 present in the cell lines tested. Flow cytometry cannot detect PD-L1 molecules that are already secreted and not bound to other cell surfaces proteins. […]
# H1650 cells = system: H1650 cells
# Procedure: as §1, §2, §3
# H460 cells = system: H460 cells
# Procedure: as §1, §2, §3
# SKMES1 cells = system: SKMES1 cells
# Procedure: as §1, §2, §3
# [1] = modulated with IFNγ, 20,000 events recorded
molecule,measurement,setting,value
B1,"Mean PD-L1 signal in Singlets, % change (Treated - Untreated)/Untreated",H1299 cells; IFNγ treated vs untreated,24%
same,"Mean PD-L1 signal in Singlets, Fold change (Treated/Untreated)",H1299 cells; IFNγ treated vs untreated,1.24
same,"Number of Events in PD-L1 + population, % change (Treated - Untreated)/Untreated",H1299 cells; IFNγ treated vs untreated,71%
same,"Number of Events in PD-L1 + population, Fold change (Treated/Untreated)",H1299 cells; IFNγ treated vs untreated,1.71
same,"Mean PD-L1 signal in Singlets, Treated",H1299 cells; modulated with IFNγ,538
same,"Number of Events in PD-L1 + population, Treated",H1299 cells; [1],3462
same,"Mean PD-L1 signal in Singlets, % change (Treated - Untreated)/Untreated",H1650 cells; IFNγ treated vs untreated,63%
same,"Mean PD-L1 signal in Singlets, Fold change (Treated/Untreated)",H1650 cells; IFNγ treated vs untreated,1.63
same,"Number of Events in PD-L1 + population, % change (Treated - Untreated)/Untreated",H1650 cells; IFNγ treated vs untreated,266%
same,"Number of Events in PD-L1 + population, Fold change (Treated/Untreated)",H1650 cells; IFNγ treated vs untreated,3.66
same,"Mean PD-L1 signal in Singlets, Treated",H1650 cells; modulated with IFNγ,714
same,"Number of Events in PD-L1 + population, Treated",H1650 cells; [1],5883
same,"Mean PD-L1 signal in Singlets, % change (Treated - Untreated)/Untreated",H460 cells; IFNγ treated vs untreated,20%
same,"Mean PD-L1 signal in Singlets, Fold change (Treated/Untreated)",H460 cells; IFNγ treated vs untreated,1.20
same,"Number of Events in PD-L1 + population, % change (Treated - Untreated)/Untreated",H460 cells; IFNγ treated vs untreated,4%
same,"Number of Events in PD-L1 + population, Fold change (Treated/Untreated)",H460 cells; IFNγ treated vs untreated,1.04
same,"Mean PD-L1 signal in Singlets, Treated",H460 cells; modulated with IFNγ,1646
same,"Number of Events in PD-L1 + population, Treated",H460 cells; [1],13382
same,"Mean PD-L1 signal in Singlets, % change (Treated - Untreated)/Untreated",SKMES1 cells; IFNγ treated vs untreated,22%
same,"Mean PD-L1 signal in Singlets, Fold change (Treated/Untreated)",SKMES1 cells; IFNγ treated vs untreated,1.22
same,"Number of Events in PD-L1 + population, % change (Treated - Untreated)/Untreated",SKMES1 cells; IFNγ treated vs untreated,3%
same,"Number of Events in PD-L1 + population, Fold change (Treated/Untreated)",SKMES1 cells; IFNγ treated vs untreated,1.03
same,"Mean PD-L1 signal in Singlets, Treated",SKMES1 cells; modulated with IFNγ,4228
same,"Number of Events in PD-L1 + population, Treated",SKMES1 cells; [1],1772
